Reference: patent US9029505B2, “Modified vasoactive intestinal peptides” (Phasebio Pharmaceuticals, Inc., priority 2009, dated 2015)
No end group written: not given here. ELP1‑120 = 120 ELP1 units (VPGXG) fused at the C-terminus

Legend:
[1] = target: T1, human Vasoactive Intestinal Peptide Receptor 2 (VPAC2) (Homo sapiens, UniProt P41587); test: cell-based cAMP bioassay in CHO cells expressing VPAC2; details: for activity compared with native VIP protein for VPAC2 receptor (cAMP produced): CHO cells expressing VPAC2, 30 minute incubation, FIG. 8, PB1047 DPP-IV treated before addition
T1 construct: expressed in transfected cells; host or cells: Chinese Hamster Ovary (CHO) cells
T1 sequence (P41587 24-438): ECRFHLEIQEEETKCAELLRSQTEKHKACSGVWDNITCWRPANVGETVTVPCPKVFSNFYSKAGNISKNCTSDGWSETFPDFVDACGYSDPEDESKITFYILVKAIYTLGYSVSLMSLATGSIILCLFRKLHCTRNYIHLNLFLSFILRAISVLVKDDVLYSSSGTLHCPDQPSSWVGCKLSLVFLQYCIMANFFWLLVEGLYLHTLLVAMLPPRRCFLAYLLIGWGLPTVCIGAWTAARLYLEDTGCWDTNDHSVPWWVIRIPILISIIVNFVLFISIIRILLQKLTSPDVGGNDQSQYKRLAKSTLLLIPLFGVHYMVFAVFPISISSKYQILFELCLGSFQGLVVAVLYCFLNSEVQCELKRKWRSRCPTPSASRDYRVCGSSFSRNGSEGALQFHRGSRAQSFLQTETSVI
Source text: (§1) To measure the in vitro biological activity and potency of VIP or VIP-ELP fusion proteins, a cell-based bioassay was used. The assay measures the increase in intracellular cyclic adenosine monophosphate (cAMP) concentration in response to treatment with VIP or VIP-ELP fusion proteins in Chinese Hamster Ovary (CHO) cells that have been engineered to express either the human Vasoactive Intestinal Peptide Receptor 2 (VPAC2) or the human Vasoactive Intestinal Peptide Receptor 1 (VPAC1). […] Since the amount of cAMP accumulation in cells after receptor-mediated ligand binding and activation is directly proportional to the amount of intact peptide or fusion protein present, the assay can be used to determine bioactivity and relative potency.
In this example, the activity of VIP-ELP fusion proteins PB1046 and PB1047 was tested. Construct PB1046 contains VIP with a Met at the N-terminus and construct PB1047 contains VIP with Ala-Ala at its N-terminus. Both constructs have ELP (1-120) at their C-terminus. In the first experiment, the activity of the constructs was tested using CHO cells expressing the VIP receptor VPAC2. After 30 minute incubations of various concentrations of the fusion proteins with the cell, the cells were lysed and the amount of cAMP produced was measured using a commercial kit. PB1047 was DPP-IV treated prior to the addition to the cells.
FIG. 13 illustrates the activity of PB1120 for the VPAC2 receptor. Like the results seen for the VPAC1 receptor, PB1120 show slightly less activity (˜1.5 fold less) than the native VIP peptide for VPAC2. However, in contrast to the results seen with VPAC1. PB1046 was equipotent for VPAC2 as compared to the native peptide.

[2] = target: T2, human Vasoactive Intestinal Peptide Receptor 1 (VPAC1) (Homo sapiens, UniProt P32241); test: cell-based cAMP bioassay in CHO cells expressing VPAC1; details: for activity compared with native VIP protein for VPAC1 receptor (cAMP produced): CHO cells expressing VPAC1, 30 minute incubation, FIG. 9, PB1047 DPP-IV treated before addition; for fold less active than the native VIP peptide on the VPAC1 receptor: FIG. 12
T2 construct: expressed in transfected cells; host or cells: Chinese Hamster Ovary (CHO) cells
T2 sequence (P32241 31-457): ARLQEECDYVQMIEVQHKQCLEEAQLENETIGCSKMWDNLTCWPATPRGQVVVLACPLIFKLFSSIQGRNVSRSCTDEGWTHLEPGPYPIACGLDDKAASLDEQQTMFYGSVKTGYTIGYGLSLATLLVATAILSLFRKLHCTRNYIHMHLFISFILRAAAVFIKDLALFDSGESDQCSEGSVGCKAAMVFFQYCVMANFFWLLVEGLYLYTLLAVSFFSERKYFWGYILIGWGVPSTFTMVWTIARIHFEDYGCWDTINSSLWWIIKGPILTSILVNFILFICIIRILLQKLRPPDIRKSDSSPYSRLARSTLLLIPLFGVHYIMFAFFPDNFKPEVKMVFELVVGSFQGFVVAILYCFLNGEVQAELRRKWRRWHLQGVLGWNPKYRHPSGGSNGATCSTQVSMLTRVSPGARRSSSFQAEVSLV
Source text: as §1
The activity of PB1046 and PB1047 was also tested using CHO cells expressing the VIP receptor VPAC1. After 30 minute incubations of various concentrations of the fusion proteins with CHO cells, cells were lysed and the amount of cAMP produced was measured using a commercial kit. PB1047 was DPP-IV treated prior to the addition to the cells.
The activity of the PB1120 fusion peptide was tested in vitro. The activity was tested using an assay utilizing CHO cells expressing VIP receptor (VPAC1) as described above in Example 3.

[3] = tested on: Spontaneously hypertensive rats; test: blood pressure effect in spontaneously hypertensive rats; format: in vivo, rat; details: 10 mg/kg subcutaneous
Experimental: The activity of the modified VIP-ELP fusion protein PB1047 was also tested in vivo. Specifically, effects of VIP-ELP fusion protein on blood pressure were tested. Spontaneously hypertensive rats were treated subcutaneous with PB1047 (10 mg/kg) or buffer control and their blood pressures were measured at several points after administration of the fusion protein. Five animals were used for each group and the graphs show the average and the standard deviation.

DPP IV = DPP IV (Homo sapiens, UniProt P27487); test: DPP IV treatment of the fusion protein; format: biochemical; details: removal of both AA and HS from the N-terminus
Source text: Plasmid pPB1064 was therefore constructed, where the N-terminus was changed to MAAHG, SEQ ID NO: 45, instead of MAAHS, SEQ ID NO: 46, because HG is more resistant to DPP IV than HS.

[4] = Domschke 1978, Burhol 1978; cited from earlier work
rats = test: effects on systolic, diastolic and mean arterial blood pressure in rats; format: in vivo, rat; details: 9 hrs post-injection
Experimental: To measure the effects of the modified VIP-ELP fusion protein PB1120 on systolic, diastolic, and mean arterial blood pressure, rats were given single, subcutaneous injections of 0.1 mg/kg, 1 mg/kg, or 5 mg/kg of PB1120 and evaluated over 3-hr intervals. FIGS. 15A, 15B, and 15C show the average change in systolic, diastolic, and mean arterial pressure, respectively.

[5] = pharmacokinetic profile in monkeys after single SC injection; format: in vivo, monkey; details: single SC 3 mg/kg, to day 4
Experimental: In addition to the biological potency assays described above, the pharmacokinetic profile of the VIP-ELP fusion protein PB1120 was also examined. Monkeys were given single subcutaneous (SC) injections (dosed at 3 mg/kg) of PB1120 and plasma drug concentrations were measured daily over the course of one week. Three animals were used and the graphs show the average and the standard deviation.

DPP IV, sequence (P27487 whole entry, species assumed, the tested form may be a part): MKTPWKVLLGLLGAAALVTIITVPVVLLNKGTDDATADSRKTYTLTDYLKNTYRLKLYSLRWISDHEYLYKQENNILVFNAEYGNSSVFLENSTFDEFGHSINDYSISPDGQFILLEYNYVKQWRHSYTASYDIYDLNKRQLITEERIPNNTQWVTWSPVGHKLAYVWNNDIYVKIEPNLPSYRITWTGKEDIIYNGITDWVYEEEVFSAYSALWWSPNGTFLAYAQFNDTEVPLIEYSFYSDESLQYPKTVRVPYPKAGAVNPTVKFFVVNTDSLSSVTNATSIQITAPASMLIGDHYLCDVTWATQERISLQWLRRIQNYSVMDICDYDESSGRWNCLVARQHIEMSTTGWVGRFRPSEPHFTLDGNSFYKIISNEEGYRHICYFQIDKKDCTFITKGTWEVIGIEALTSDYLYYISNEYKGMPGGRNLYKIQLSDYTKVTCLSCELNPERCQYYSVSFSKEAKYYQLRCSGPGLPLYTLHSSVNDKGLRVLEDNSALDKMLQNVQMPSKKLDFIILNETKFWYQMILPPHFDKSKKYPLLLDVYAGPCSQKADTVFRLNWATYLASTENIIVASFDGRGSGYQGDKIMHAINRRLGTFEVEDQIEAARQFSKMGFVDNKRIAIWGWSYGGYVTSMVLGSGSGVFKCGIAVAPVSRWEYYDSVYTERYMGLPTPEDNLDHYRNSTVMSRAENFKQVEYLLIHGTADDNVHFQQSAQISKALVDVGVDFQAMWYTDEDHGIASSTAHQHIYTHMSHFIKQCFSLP

For “PB1046: VIP-ELP fusion protein with Met at the N-terminus and ELP1-120 at the C-terminus (SEQ ID NO. 17; FIG. 1 SEQ ID NO: 14) (MHSDAVFTDNYTRLRKQMAVKKYLNSILN-{ELP1‑120}; also: recombinant VIP-ELP fusion)”, which “activity compared with native VIP protein for VPAC2 receptor (cAMP produced)” value [1] is on record?
The value was “somewhat more active than native VIP protein”.

And the “potency for VPAC2 compared to the native peptide” value ([1]; FIG. 13)?
Its value is “equipotent”.

What about the “receptor selectivity VPAC2 over VPAC1” value ([1]; comparison of FIG. 8 and FIG. 9) of the same molecule?
The value was “selectively activates VPAC2 receptor over VPAC1 receptor”.

And the “activity compared with native VIP protein for VPAC1 receptor (cAMP produced)” value [2]?
Its value is “much less active than native VIP protein”.

And the “fold less active than the native VIP peptide on the VPAC1 receptor” value [2]?
Its value is “approximately 11 fold”.

Which results are given for “PB1047: VIP-ELP fusion with tripeptide MAA encoded at N-terminus (Ala-Ala after Met removal), ELP1-120 at C-terminus (SEQ ID 18) (MAAHSDAVFTDNYTRLRKQMAVKKYLNSILN-{ELP1‑120}; also: recombinant fusion with ELP1-120 at C-terminus)”?
duration of blood pressure reduction post administration ([3]; systolic and diastolic): at least 12 hours; diastolic blood pressure ([3]; vs buffer control, FIG. 10): significantly reduced; systolic blood pressure ([3]; vs buffer control, FIG. 10): significantly reduced; effect of DPP IV treatment on the peptide (DPP IV): inactivation of the peptide; activity compared with native VIP protein for VPAC2 receptor (cAMP produced) [1]: less active; activity compared with native VIP protein for VPAC1 receptor (cAMP produced) [2]: about the same as it was in the test for VPAC2 receptor

For Vasoactive intestinal peptide [VIP], which half-life in blood [4] is on record?
Its half-life in blood is “less than 2 minutes”.

B1: PB1120: VIP-ELP1-120 fusion peptide encoded by pPB1120 (protein)
chain: HSDAVFTDNYTRLRKQMAVKKYLNSILNVPGVGVPGVGVPGGGVPGAGVPGVGVPGVGVPGVGVPGGGVPGAGVPGGGVPGVGVPGVGVPGGGVPGAGVPGVGVPGVGVPGVGVPGGGVPGAGVPGGGVPGVGVPGVGVPGGGVPGAGVPGVGVPGVGVPGVGVPGGGVPGAGVPGGGVPGVGVPGVGVPGGGVPGAGVPGVGVPGVGVPGVGVPGGGVPGAGVPGGGVPGVGVPGVGVPGGGVPGAGVPGVGVPGVGVPGVGVPGGGVPGAGVPGGGVPGVGVPGVGVPGGGVPGAGVPGVGVPGVGVPGVGVPGGGVPGAGVPGGGVPGVGVPGVGVPGGGVPGAGVPGVGVPGVGVPGVGVPGGGVPGAGVPGGGVPGVGVPGVGVPGGGVPGAGVPGVGVPGVGVPGVGVPGGGVPGAGVPGGGVPGVGVPGVGVPGGGVPGAGVPGVGVPGVGVPGVGVPGGGVPGAGVPGGGVPGVGVPGVGVPGGGVPGAGVPGVGVPGVGVPGVGVPGGGVPGAGVPGGGVPGVGVPGVGVPGGGVPGAGVPGVGVPGVGVPGVGVPGGGVPGAGVPGGGVPGVGVPGVGVPGGGVPGAGVPGVGVPGVGVPGVGVPGGGVPGAGVPGGGVPGWP
modifications: VIP ELP1-120
notes: VIP-ELP1-120 fusion peptide encoded by pPB1120
Which diastolic pressure (rats; 1 mg/kg SC) does the source give for B1 here?
Its diastolic pressure is “significant reductions”.

What about the mean arterial pressure (rats; 1 mg/kg SC) of the same molecule?
The mean arterial pressure was “significant reductions”.

And the systolic pressure (rats; 1 mg/kg SC)?
The systolic pressure was “significant reductions”.

And the diastolic pressure (rats; 5 mg/kg SC)?
The diastolic pressure was “significant reductions”.

What about the mean arterial pressure (rats; 5 mg/kg SC) of the same molecule?
The mean arterial pressure was “significant reductions”.

What about the systolic pressure (rats; 5 mg/kg SC) of the same molecule?
The systolic pressure was “significant reductions”.

What about the “portion of initial dose remaining in the circulation” value [5] of the same molecule?
Its value is “More than half”.

What about the “fold less activity than the native VIP peptide for VPAC2” value ([1]; FIG. 13) of the same molecule?
Its value is ~1.5 fold.

And the “fold less active than the native VIP peptide on the VPAC1 receptor” value [2]?
Its value is “approximately 1.4 fold”.
